Here are results for two substances from IntAct's records for PubMed 25512093.

The target in this assay is bicd2_human BICD2 (UniProt Q8TD16).
Chain of UniProt Q8TD16 (Q8TD16 whole entry): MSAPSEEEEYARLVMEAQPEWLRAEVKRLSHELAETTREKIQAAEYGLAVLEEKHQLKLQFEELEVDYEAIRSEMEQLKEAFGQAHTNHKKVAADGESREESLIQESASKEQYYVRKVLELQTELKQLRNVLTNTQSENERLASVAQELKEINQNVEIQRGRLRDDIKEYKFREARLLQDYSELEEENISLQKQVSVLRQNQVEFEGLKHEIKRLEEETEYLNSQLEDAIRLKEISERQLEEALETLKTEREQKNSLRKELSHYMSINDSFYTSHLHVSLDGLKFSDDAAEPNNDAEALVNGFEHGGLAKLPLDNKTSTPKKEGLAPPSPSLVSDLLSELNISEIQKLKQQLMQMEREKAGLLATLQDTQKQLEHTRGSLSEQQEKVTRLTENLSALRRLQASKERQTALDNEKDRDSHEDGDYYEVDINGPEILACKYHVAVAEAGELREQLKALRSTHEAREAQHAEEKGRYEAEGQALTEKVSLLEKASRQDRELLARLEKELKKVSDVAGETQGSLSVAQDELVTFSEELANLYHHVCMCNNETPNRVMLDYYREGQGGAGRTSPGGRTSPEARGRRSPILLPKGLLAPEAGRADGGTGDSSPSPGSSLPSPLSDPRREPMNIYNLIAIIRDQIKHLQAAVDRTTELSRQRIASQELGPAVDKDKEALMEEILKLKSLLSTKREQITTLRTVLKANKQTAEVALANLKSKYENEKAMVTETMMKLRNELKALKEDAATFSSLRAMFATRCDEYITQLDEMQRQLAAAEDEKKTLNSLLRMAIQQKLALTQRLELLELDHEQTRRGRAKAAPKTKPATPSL

“Cytoplasmic dynein 1 heavy chain 1 (Homo sapiens), Q14204 R264L”: the “effect of a mutation on the interaction” value was “increasing interaction strength”.
The entry for “Cytoplasmic dynein 1 heavy chain 1 (Homo sapiens), Q14204 R598C” is “increasing interaction strength”.
